Measured values reported in US20260191957A1 (NOVATIM IMMUNE THERAPEUTICS ZHEJIANG, published 2026).
Numbering of substitutions follows the chain as printed.

B1: B19 CAR (BCMA CAR and CD19-mutant CAR expressed in parallel on T cells) (other)
chain 1: DIVLTQSPPSLAMSLGKRATISCRASESVTILGSHLIHWYQQKPGQPPTLLIQLASNVQTGVPARFSGSGSRTDFTLTIDPVEEDDVAVYYCLQSRTIPRTFGGGTKLEIKGGGGSGGGGSGGGGSQIQLVQSGPELKKPGETVKISCKASGYTFTDYSINWVKRAPGKGLKWMGWINTETREPAYAYDFRGRFAFSLETSASTAYLQINNLKYEDTATYFCALDYSYAMDYWGQGTSVTVSSTTTPAPRPPTPAPTIASQPLSLRPEACRPAAGGAVHTRGLDFACDIYIWAPLAGTCGVLLLSLVITLYCKRGRKKLLYIFKQPFMRPVQTTQEEDGCSCRFPEEEEGGCELRVKFSRSADAPAYQQGQNQLYNELNLGRREEYDVLDKRRGRDPEMGGKPRRKNPQEGLYNELQKDKMAEAYSEIGMKGERRRGKGHDGLYQGLSTATKDTYDALHMQALPPR
chain 2: DIQMTQTTSSLSASLGDRVTISCRASQDISKYLNWYQQKPDGTVKLLIYHTSRLHSGVPSRFSGSGSGTDYSLTISNLEQEDIATYFCQQGNTLPYTFGGGTKLEITGGGGSGGGGSGGGGSEVKLQESGPGLVAPSQSLSVTCTVSGVSLPDYGVSWIRQPPRKGLEWLGVIWGSETTYYNSALKSRLTIIKDNSKSQVFLKMNSLQTDDTAIYYCAKHYYYGGSYAMDYWGQGTSVTVSSIEVMYPPPYLDNEKSNGTIIHVKGKHLCPSPLFPGPSKPFWVLVVVGGVLACYSLLVTVAFIIFWVRSKRSRLLHSDYMFMTPRRPGPTRKHYQPYAPPRDFAAYRSRVKFSRSADAPAYQQGQNQLYNELNLGRREEYDVLDKRRGRDPEMGGKPRRKNPQEGLYNELQKDKMAEAYSEIGMKGERRRGKGHDGLYQGLSTATKDTYDALHMQALPPR
B2: B19-wildtype CAR (BCMA CAR and CD19-wildtype CAR expressed in parallel on T cells) (other)
chain 1: B1 chain 1
chain 2: B1 chain 2 with F322N

Target: T1, CD19 on Nalm6-luc tumor cells (CD19+BCMA-) (UniProt P15391 20-556, limits assumed)
T1 sequence (looked up): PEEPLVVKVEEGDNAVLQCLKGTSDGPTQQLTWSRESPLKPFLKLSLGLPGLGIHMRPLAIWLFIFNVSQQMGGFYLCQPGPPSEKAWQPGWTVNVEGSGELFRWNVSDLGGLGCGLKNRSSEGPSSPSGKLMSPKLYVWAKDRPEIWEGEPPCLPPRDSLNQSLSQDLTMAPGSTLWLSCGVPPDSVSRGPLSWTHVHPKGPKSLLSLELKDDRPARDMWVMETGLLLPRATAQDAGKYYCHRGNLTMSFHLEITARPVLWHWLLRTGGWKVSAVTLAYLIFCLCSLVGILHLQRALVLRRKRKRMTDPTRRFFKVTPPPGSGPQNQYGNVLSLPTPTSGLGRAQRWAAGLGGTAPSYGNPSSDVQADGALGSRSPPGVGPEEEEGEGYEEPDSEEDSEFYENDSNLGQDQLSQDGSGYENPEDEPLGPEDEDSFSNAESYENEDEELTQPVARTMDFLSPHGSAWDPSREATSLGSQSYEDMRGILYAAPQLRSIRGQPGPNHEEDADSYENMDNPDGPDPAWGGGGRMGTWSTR
Assay: cell-based or functional assay

Row | Binder | tumor cell killing rate, Nalm6-luc, E:T 1:8, 72 h luciferase assay [%] | tumor cell killing rate, Nalm6-luc, E:T 1:16, 72 h luciferase assay [%]
1 | B1 | 71.8 | 49
2 | B2 | 55 | 30.6
